Laboratory results: patent US20230340152A1 (published 2023)

T1: Cynomolgus CD73 ECD (cynomolgus, UniProt A0A2K5V5U7 27-549)
T1 construct: extracellular domain; also called cyno CD73
T1 sequence: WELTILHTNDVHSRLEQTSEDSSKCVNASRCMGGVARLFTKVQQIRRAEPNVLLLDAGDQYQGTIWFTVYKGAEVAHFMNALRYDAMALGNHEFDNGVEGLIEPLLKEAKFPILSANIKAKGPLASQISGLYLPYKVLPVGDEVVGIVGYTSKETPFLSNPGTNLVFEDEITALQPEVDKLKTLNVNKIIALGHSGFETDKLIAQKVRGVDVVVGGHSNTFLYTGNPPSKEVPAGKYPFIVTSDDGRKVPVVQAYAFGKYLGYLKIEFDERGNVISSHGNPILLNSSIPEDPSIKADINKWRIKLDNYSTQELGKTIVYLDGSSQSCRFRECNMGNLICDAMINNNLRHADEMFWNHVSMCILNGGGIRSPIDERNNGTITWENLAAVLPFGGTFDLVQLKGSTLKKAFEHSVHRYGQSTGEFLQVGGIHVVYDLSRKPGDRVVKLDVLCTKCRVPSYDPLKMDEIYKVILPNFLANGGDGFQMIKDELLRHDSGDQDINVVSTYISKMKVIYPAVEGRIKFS

T2: Human CD73 ECD (human, UniProt P21589 27-549)
T2 construct: Biotinylated in some assays; also called human CD73 extracellular domain; huCD73
T2 sequence: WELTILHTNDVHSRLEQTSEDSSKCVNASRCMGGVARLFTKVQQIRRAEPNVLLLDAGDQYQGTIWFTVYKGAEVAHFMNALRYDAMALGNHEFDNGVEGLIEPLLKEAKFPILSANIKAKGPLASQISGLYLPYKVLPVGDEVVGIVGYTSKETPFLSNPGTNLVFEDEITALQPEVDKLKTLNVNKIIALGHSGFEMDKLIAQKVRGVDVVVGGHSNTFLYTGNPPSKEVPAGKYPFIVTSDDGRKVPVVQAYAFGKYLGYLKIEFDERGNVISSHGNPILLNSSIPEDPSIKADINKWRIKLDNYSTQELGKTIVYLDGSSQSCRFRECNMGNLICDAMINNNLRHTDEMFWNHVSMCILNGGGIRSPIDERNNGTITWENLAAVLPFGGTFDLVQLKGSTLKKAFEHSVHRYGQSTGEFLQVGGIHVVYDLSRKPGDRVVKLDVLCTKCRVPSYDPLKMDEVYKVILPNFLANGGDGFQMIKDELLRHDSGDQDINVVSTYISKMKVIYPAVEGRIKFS

T3: Human CD73 on cells (MDA-MB-231, Jurkat CD73 knock-in, NCI-H322) (human, UniProt P21589 27-549)
T3 sequence: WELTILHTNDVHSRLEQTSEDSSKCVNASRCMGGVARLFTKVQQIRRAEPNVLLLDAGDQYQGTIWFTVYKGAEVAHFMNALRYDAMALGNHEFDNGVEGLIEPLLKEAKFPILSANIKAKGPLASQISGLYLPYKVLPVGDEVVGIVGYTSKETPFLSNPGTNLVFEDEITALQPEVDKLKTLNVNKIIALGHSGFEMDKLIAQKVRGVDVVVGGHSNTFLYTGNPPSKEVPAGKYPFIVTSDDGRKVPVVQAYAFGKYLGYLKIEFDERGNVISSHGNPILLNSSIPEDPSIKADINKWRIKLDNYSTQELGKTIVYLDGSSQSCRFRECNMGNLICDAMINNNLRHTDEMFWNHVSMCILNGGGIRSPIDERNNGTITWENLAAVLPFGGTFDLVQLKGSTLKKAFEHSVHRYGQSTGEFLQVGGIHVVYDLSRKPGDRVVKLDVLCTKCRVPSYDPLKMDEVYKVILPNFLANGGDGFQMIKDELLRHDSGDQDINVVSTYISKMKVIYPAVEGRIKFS

T4: Murine CD73 ECD (murine, UniProt Q61503 29-551, limits assumed)
T4 construct: extracellular domain; In-house recombinant ECD; also called murine CD73 extracellular domain; muCD73
T4 sequence (looked up): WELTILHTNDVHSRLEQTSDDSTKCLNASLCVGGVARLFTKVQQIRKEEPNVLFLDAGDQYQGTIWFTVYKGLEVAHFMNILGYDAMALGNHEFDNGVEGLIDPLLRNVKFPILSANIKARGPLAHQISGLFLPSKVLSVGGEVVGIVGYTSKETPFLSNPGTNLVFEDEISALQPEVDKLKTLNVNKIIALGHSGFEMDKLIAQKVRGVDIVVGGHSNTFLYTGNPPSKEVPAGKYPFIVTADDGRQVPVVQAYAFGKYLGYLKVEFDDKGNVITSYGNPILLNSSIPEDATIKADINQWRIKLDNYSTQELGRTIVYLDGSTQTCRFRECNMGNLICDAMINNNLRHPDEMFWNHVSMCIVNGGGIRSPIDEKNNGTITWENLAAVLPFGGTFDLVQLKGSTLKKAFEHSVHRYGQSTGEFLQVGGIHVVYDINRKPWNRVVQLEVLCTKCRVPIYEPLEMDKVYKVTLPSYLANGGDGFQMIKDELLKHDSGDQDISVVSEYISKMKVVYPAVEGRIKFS


Columns and labels:
Cynomolgus CD73 ECD = molecular target: T1, Cynomolgus CD73 ECD; assay: binding assay, format not stated
Human CD73 ECD [1] = molecular target: T2, Human CD73 ECD; assay: binding assay, format not stated
[2] = molecular target: T3, Human CD73 on cells (MDA-MB-231, Jurkat …); assay: cell-based or functional assay
Human CD73 ECD [3] = molecular target: T2, Human CD73 ECD; assay: cell-based or functional assay
Murine CD73 ECD [4] = molecular target: T4, Murine CD73 ECD; assay: binding assay, format not stated
Human CD73 ECD [5] = molecular target: T2, Human CD73 ECD; assay: direct ELISA, normalized Fab supernatant, vs CD730010 GL9
Murine CD73 ECD [6] = molecular target: T4, Murine CD73 ECD; assay: as above

Binder	1/EC50 (Cynomolgus CD73 ECD)	1/EC50 (Human CD73 ECD [1])	Enzyme Inhibition, MDA-MB-231, 1/EC50 (nM) [2]	Internalization, MDA-MB-231, 1/EC50 (nM) [2]	Enzyme Inhibition, rCD73, 1/EC50 (nM) (Human CD73 ECD [3])	1/EC50 (Murine CD73 ECD [4])	ELISA signal, fold improvement over parental antibody (Human CD73 ECD [5])	ELISA signal, fold improvement over parental antibody (Murine CD73 ECD [6])
CD730042 (antibody, V domains shown, IgG1-TM format; also called CD730042 antibody) VH: GVQLVQSGGGLVQPGGSLRLSCAASGFTFSSYGMHWVRQAPGKGLEWVAVISYDGSIKYYADSVKGRFTISRDDSKNALYLQMNSLRAEDTAVYYCSTLSGSYGYFDYWGRGTLVTVSS VL: QSVLTQPASVSGSPGQSITISCAGTSSDVGGYNYVSWYQQHPGKAPKLMIYEGSKRPSGVSNRFSGSKSGNTASLTISGLQAEDEADYYCSSYTTRSTRVFGGGTKLTVL	0.0014 nM⁻¹	0.0017 nM⁻¹	0.0032 nM⁻¹	0 nM⁻¹	0 nM⁻¹			
CD730008 (antibody, IgG1, V domains shown, IgG1-TM format; also called CD730008 antibody) VH: EVQLLETGGGLVQPGGSLRLSCAASGFTFSSYAMSWVRQAPGKGLEWVSAISGSGGSTYYADSVKGRFTISRDNSKNTLYLQMNSLRAEDTAVYYCARGNYGNLDHWGKGTLVTVSS VL: QSVLTQPPSVSVSPGQTASITCSGDKVGDKYASWYQQKPGQSPVLVIYQDRKRPSGIPERFSGSNSGNTATLTISGTQPMDEADYYCQAWDSSHWVFGGGTKLTVL	0.0011 nM⁻¹	0.0011 nM⁻¹	0.11 nM⁻¹	0 nM⁻¹	0 nM⁻¹	0.00058 nM⁻¹		
CD730010 GL9 VH G54W Fab (Fab, name in Kabat numbering, V domains shown, Bacterial Fab, normalized supernatant) VH: EVQLLESGGGLVQPGGSLRLSCAASGFTFSSYAMSWVRQAPGKGLEWVSAISGSWGSTYYADSVKGRFTISRDNSKNTLYLQMNSLRAEDTAVYYCARLGYSTIDYWGRGTLVTVSS VL: not shown							4.2 fold	3.7 fold
CD730010 GL9 VH S56R Fab (Fab, name in Kabat numbering, V domains shown, Bacterial Fab, normalized supernatant) VH: EVQLLESGGGLVQPGGSLRLSCAASGFTFSSYAMSWVRQAPGKGLEWVSAISGSGGRTYYADSVKGRFTISRDNSKNTLYLQMNSLRAEDTAVYYCARLGYSTIDYWGRGTLVTVSS VL: not shown							5.6 fold	4.9 fold
CD730010 GL9 VH S52W Fab (Fab, name in Kabat numbering, V domains shown, Bacterial Fab, normalized supernatant) VH: EVQLLESGGGLVQPGGSLRLSCAASGFTFSSYAMSWVRQAPGKGLEWVSAIWGSGGSTYYADSVKGRFTISRDNSKNTLYLQMNSLRAEDTAVYYCARLGYSTIDYWGRGTLVTVSS VL: not shown							8.9 fold	4.4 fold
CD730010 GL9 VH M34Y Fab (Fab, name in Kabat numbering, V domains shown, Bacterial Fab, normalized supernatant) VH: EVQLLESGGGLVQPGGSLRLSCAASGFTFSSYAYSWVRQAPGKGLEWVSAISGSGGSTYYADSVKGRFTISRDNSKNTLYLQMNSLRAEDTAVYYCARLGYSTIDYWGRGTLVTVSS VL: not shown							3.9 fold	2.9 fold
CD730010 GL9 VH G54N Fab (Fab, name in Kabat numbering, V domains shown, Bacterial Fab, normalized supernatant) VH: EVQLLESGGGLVQPGGSLRLSCAASGFTFSSYAMSWVRQAPGKGLEWVSAISGSNGSTYYADSVKGRFTISRDNSKNTLYLQMNSLRAEDTAVYYCARLGYSTIDYWGRGTLVTVSS VL: not shown							8.9 fold	7.1 fold
CD730010 GL9 VH M34I Fab (Fab, name in Kabat numbering, V domains shown, Bacterial Fab, normalized supernatant) VH: EVQLLESGGGLVQPGGSLRLSCAASGFTFSSYAISWVRQAPGKGLEWVSAISGSGGSTYYADSVKGRFTISRDNSKNTLYLQMNSLRAEDTAVYYCARLGYSTIDYWGRGTLVTVSS VL: not shown							1.5 fold	1.1 fold
CD730010 GL9 VH S35H Fab (Fab, name in Kabat numbering, V domains shown, Bacterial Fab, normalized supernatant) VH: EVQLLESGGGLVQPGGSLRLSCAASGFTFSSYAMHWVRQAPGKGLEWVSAISGSGGSTYYADSVKGRFTISRDNSKNTLYLQMNSLRAEDTAVYYCARLGYSTIDYWGRGTLVTVSS VL: not shown							1.8 fold	1.1 fold
CD730046 (antibody, V domains shown, IgG1-TM format; also called CD730046 antibody) VH: QVQLVQSGGGVVQPGRSLRLSCAASGFTFSSYGMHWVRQAPGKGLEWVAVISYDGSIKYYADSVKGRFTISRDNSKNSLFLQMNSLRDDDTATYYCARGHLLRIGDIFYYSLDVWGQGTLVTVSS VL: not shown	0.01 nM⁻¹	0.0041 nM⁻¹	0.081 nM⁻¹	0 nM⁻¹	0 nM⁻¹	0.0052 nM⁻¹		
CD730004 (antibody, V domains shown, IgG1-TM format; also called CD730004 antibody) VH: not shown VL: NFMLTQPHSVSESPGQTVTISCTRSSGSIASKYVQWYQKRPGSSPTTVIYEDTQRPSGVPDRFSGSIDISSNSASLTISGLRTEDEADYYCQSYDSTNWVFGGGTKVTVL			0.06 nM⁻¹	0 nM⁻¹		0.00023 nM⁻¹		
CD730021 (antibody, V domains shown, IgG1-TM format; also called CD730021 antibody) VH: QVQLQESGPGLVRPSETLSLTCTVSGGSISSSSYYWAWVRQSPGKGLEWIGNIYYRGSTYYNPSLKSRVTMSVDMSKHQFSLKLSSLNAADTAVYYCASLYSGTYVFDYWGRGTLVTVSS VL: QSVLTQPPSASGTPGQRVTISCSGSRPNIGGNTVNWYQQLPGAAPKLLIYSNSQRPSGVPDRFSGSKYGTSASLAISGLQSDDEADYYCGTWDDSLNGPVFGRGTKLTVL	0.0012 nM⁻¹	0.00085 nM⁻¹	0.0095 nM⁻¹	0.0011 nM⁻¹	0.0011 nM⁻¹	0.00057 nM⁻¹		
CD730011 (antibody, V domains shown, IgG1-TM format; also called CD730011 antibody; CD7300011) VH: not shown VL: NFMLTQPHSVSESPGKTVTISCTRSSGSIASKYVQWYQQRPGSSPMAVIYKDNQRSSGVPDRFSGSIDSSSNSASLTISGLKPEDEADYYCQSYDASNYYVFGTGTKVTVL	0.0027 nM⁻¹	0.0021 nM⁻¹	0.00068 nM⁻¹	0 nM⁻¹	0 nM⁻¹	0.0015 nM⁻¹		
